Target: CDK4 (UniProt P11802)
Sequence (P11802 2-303): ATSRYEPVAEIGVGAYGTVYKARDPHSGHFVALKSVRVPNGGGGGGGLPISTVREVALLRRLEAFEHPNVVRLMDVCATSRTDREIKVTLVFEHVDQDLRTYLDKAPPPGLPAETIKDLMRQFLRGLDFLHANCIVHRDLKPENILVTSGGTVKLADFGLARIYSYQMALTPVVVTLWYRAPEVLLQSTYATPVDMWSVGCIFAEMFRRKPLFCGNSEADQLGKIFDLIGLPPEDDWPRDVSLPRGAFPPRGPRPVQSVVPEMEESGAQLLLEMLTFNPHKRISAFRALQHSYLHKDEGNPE

JNK
phosphorylation of CDK4 at Thr-172 (immunoblot): JNK phosphorylated T172 of CDK4 2 hours after serum stimulation
